Data published in patent US20200262895A1 (Biogen, published 2020).
Each block holds one binder with its values, some of them ahead of it.

Legend:
[1] = biological target: T1, recombinant human tau, isoform Tau-F of 441 aa (hTau40) (human, UniProt P10636 1-758); assay: direct ELISA, hTau40 coated at 1 ug/ml
T1 construct: Bought from rPeptide (Bogart, GA, USA); coated on ELISA plates, blotted, or spotted as overlapping peptides; also called full-length tau; rTau
Procedure: (§1) The EC₅₀ values were estimated by a non-linear regression using GraphPad Prism software.
ELISA plates were coated with recombinant human tau (hTau40, 1 ug/ml), PHFTau (1:100) and control preparation (1:100), and incubated with varying antibody concentrations.

[2] = biological target: T2, normal tau in wild type mouse brain (Wt) (mouse, UniProt P10637-2 1-430, limits assumed); assay: immunohistochemistry on brain tissue
T2 construct: Control tissue in immunohistochemistry

[3] = biological target: T3, PHFTau (paired helical filaments containing pathologically phosphorylated tau filaments, extracted from AD … (human, UniProt P10636-8 1-441, limits assumed, pathologically phosphorylated (sites of the preparation not listed), aggregated filaments)); assay: direct ELISA on coated PHFTau
T3 construct: Brain extract, not a single defined isoform; also called human PHF tau; pathologically modified PHFTau

[4] = biological target: T1, recombinant human tau, isoform Tau-F of …; assay: direct ELISA on coated recombinant tau (rTau)
[5] = biological target: T1, recombinant human tau, isoform Tau-F of …; assay: binding of CHO-produced antibody to recombinant tau; format not stated
[6] = biological target: T1, recombinant human tau, isoform Tau-F of …; assay: direct ELISA, hTau40 coated at 3 ug/ml
Excerpt: as §1

T1 sequence (P10636 other isoform, or with tags, fused parts or gaps limits assumed): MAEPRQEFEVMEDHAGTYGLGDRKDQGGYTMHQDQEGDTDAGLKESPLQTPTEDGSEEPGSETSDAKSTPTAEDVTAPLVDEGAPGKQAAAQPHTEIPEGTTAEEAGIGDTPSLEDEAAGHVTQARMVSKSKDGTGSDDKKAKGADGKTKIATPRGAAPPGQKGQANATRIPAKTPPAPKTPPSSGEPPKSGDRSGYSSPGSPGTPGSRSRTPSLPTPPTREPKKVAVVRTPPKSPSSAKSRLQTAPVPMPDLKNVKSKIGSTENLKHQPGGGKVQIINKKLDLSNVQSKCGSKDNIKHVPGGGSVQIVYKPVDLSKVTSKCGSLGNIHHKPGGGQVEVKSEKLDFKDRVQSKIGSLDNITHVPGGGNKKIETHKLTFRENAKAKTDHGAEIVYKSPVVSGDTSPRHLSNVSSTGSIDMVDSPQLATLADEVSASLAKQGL
T2 sequence (P10637 other isoform, or with tags, fused parts or gaps limits assumed): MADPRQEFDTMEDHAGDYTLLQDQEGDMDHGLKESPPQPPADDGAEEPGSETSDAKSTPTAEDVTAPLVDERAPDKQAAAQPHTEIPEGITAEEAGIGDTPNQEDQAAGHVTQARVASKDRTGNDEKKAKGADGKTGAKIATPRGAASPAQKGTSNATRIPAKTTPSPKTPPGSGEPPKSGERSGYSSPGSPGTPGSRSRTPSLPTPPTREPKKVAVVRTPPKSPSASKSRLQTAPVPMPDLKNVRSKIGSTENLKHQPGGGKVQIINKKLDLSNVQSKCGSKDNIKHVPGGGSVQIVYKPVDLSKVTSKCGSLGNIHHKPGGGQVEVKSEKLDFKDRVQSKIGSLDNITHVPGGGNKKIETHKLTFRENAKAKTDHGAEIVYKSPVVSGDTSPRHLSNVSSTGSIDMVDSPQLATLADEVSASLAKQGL
T3 sequence (P10636 other isoform, or with tags, fused parts or gaps limits assumed): as the sequence (P10636 other isoform, or with tags, fused parts or gaps limits assumed) above

EC50 [1]: 1.4 nM
B1: recombinant human antibody NI-105.4A3 (antibody, V domains shown)
VH: EVQLVETGGGAVQPGGSLRLSCAASGFTFSDYAMHWVRQAPGKGLQWVAVISYEGTYKYYADSVKGRFTISRDNSKNTLNLQMSSLRVEDTAVYFCVKARAFASGQRSTSTVPDYWGQGTLVTVSS
VL: SYELTQPPSVSVSPGQTARITCSGDALPKKYAYWYQQKSGQAPVLVIYEDNKRPSGIPERFSGSSSGTVATLTISGAQVDDEADYYCYSTDISGDLRVFGGGTKLTVL
notes: Human antibody described in US 2012/0087861; used as cloned

binding result [2]: no binding
EC50 [3]: 0.04 nM
EC50 [4]: 0.033 nM
B2: recombinant human antibody NI-105.6C5 (germlined) (antibody, human IgG1, V domains shown)
VH: QVQLVESGGGVVQPGRSLRVSCAASGFTFSSYDMHWVRQAPGKGLEWVAVIWFDGSNEFYADSVKGRFTISRDNSKNTLFLQMNSLRAEDTAVYYCARDLGASVTTSNAENFHHWGQGTLVTVSS
VL: SYELTQPPSVSVSPGQTARITCSGDALPKRYVYWYQQKSGQAPVLVIYEDSKRPSGIPETFSGSSSGTMATLTISGAQVEDEADYYCYSTDSNGHHWVFGGGTKLTVL

fold higher apparent binding affinity relative to the original, glycosylated antibody (ch4E4) [5]: ~4 fold
B3: chimeric NI-105.4E4(N30Q) (ch4E4(N30Q)), mouse IgG2a/lambda (antibody, V domains shown)
VH: EVQLVESGGGLVQPGGSLKLSCAASGFNFQISAIHWVRQASGKGLEWVGRIRSKSHNYATLYAASLKGRFTLSRDDSRNTAYLQMSSLQTEDMAVYYCTVLSANYDTFDYWGQGTLVTVSS
VL: SYELTQPPSVSVSPGQTARISCFGDTLPKQYTYWYQQKPGQAPVLVIYKDTERPSGIPERFSGSSSGTTVTLTISGVQAEDEADYYCLSADNSATWVFGGGTKVTVLG
notes: Only the heavy chain of ch4E4 was changed (Asn-30 to Gln)

EC50 [6]: 6.6 nM
B4: recombinant human antibody NI-105.24B2 (antibody, V domains shown)
VH: EVQLVQSGAEVKKPGASVKVSCKASGYTFVNYIIHWVRQAPGQGLEWMGIINPNGGNTSYAEKFQARVTLTSDTSTSTVYMDLSSLTSEDTAVYYCAVLSPSNPWGQGTTVTVSS
VL: SYVLTQPPSVSVSPGQTAGITCSGDALPKQFVYWYQKKPGQAPVLLIYKDTERPSRIPERFSGSTSGTTVALTINGVQAEDEADYYCQSADRSGALWVFGGGTKLTVL
notes: as for B1
